One molecule from paper PMC5596431 (Cell Death and Differentiation, 2017) can be followed below.

This assay concerns the target BiP (binding immunoglobulin protein), ER-resident chaperone (human (endogenous in H1299), UniProt P11021 19-654). As to the kind of experiment: proximity ligation.

BiP (binding immunoglobulin protein), ER-resident chaperone, sequence (P11021 19-654): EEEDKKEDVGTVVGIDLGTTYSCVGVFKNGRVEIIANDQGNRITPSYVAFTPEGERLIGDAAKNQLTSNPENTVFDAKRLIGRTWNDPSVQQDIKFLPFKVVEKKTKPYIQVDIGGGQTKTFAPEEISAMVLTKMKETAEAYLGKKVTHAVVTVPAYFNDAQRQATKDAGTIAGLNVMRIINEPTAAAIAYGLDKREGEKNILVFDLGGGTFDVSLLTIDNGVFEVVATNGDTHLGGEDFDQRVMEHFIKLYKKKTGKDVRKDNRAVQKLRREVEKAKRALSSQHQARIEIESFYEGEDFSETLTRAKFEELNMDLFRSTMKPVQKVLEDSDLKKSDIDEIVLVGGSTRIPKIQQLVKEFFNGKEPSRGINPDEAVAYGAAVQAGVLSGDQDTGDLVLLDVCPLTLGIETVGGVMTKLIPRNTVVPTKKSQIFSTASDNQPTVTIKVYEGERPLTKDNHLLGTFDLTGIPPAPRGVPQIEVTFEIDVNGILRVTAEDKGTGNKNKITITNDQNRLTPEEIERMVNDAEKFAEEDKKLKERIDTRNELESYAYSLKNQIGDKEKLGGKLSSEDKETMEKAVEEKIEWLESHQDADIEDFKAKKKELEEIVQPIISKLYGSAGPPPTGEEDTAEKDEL

B1: BIK, BH3-only pro-apoptotic member of the BCL-2 family (natural protein, human (endogenous in H1299), UniProt Q13323 1-160, looked up)
chain: MSEVRPLSRDILMETLLYEQLLEPPTMEVLGMTDSEEDLDPMEDFDSLECMEGSDALALRLACIGDEMDVSLRAPRLAQLSEVAMHSLGLAFIYDQTEDIRDVLRSFMDGFTTLKENIMRFWRSPNPGSWVSCEQVLLALLLLLALLLPLLSGGLHLLLK
Regarding B1, the “ratio of PLA BIK/BiP complexes in p53-positive/p53-negative cells, DMSO” value was found to be 1.3 ratio and the “ratio of PLA BIK/BiP complexes in p53-positive/p53-negative cells, thapsigargin” value amounted to 0.4 ratio.
